{
  "source": "paper PMC6475481",
  "about": "(Journal of the American Chemical Society, 2019)",
  "binders": {"B1": {"name": "AqpZ, P60844 1-231 (natural protein)", "chain": "MFRKLAAECFGTFWLVFGGCGSAVLAAGFPELGIGFAGVALAFGLTVLTMAFAVGHISGGHFNPAVTIGLWAGGRFPAKEVVGYVIAQVVGGIVAAALLYLIASGKTGFDAAASGFASNGYGEHSPGGYSMLSALVVELVLSAGFLLVIHGATDKFAPAGFAPIAIGLALTLIHLISIPVTNTSVNPARSTAVAIFQGGWALEQLWFFWVVPIVGGIIGGLIYRTLLEKRD"}, "B2": {"name": "AmtB (natural protein)", "chain": "VADKADNAFMMICTALVLFMTIPGIALFYGGLIRGKNVLSMLTQVTVTFALVCILWVVYGYSLAFGEGNNFFGNINWLMLKNIELTAVMGSIYQYIHVAFQGSFACITVGLIVGALAERIRFSAVLIFVVVWLTLSYIPIAHMVWGGGLLASHGALDFAGGTVVHINAAIAGLVGAYLIGKRVGFGKEAFKPHNLPMVFTGTAILYIGWFGFNAGSAGTANEIAALAFVNTVVATAAAILGWIFGEWALRGKPSLLGACSGAIAGLVGVTPACGYIGVGGALIIGVVAGLAGLWGVTMLKRLLRVDDPCDVFGVHGVCGIVGCIMTGIFAASSLGGVGFAEGVTMGHQLLVQLESIAITIVWSGVVAFIGYKLADLTVGLRVPEEQEREGLDVNSHGENAYNA"}},
  "key": {"AqpZ, P60844": {"target": "T1, AqpZ, P60844", "T1 chain": "B1 chain", "assay": "native MS", "conditions": "remark: other sources report otherwise"}, "native MS": {"target": "the molecule itself", "assay": "native MS"}},
  "data": [
    {"binder": "B1", "values": [
      {"measurement": "stoichiometry N", "setting": "AqpZ, P60844", "value": 4}
    ]},
    {"binder": "B2", "values": [
      {"measurement": "stoichiometry N", "setting": "native MS", "value": 3}
    ]}
  ]
}
